Key:
human TNFSF10 (TRAIL) = human TNFSF10 (TRAIL) (human, UniProt P50591 114-281); test: plate ELISA, cytokine coated
Description: (§1) The first 6 rows of each plate were coated with the test article cytokine, and the last two rows were coated with TL1A as a positive control. Rows 1 and 2 were duplicate rows where the test article cytokine was tested for binding to increasing concentrations of its corresponding anti-cytokine positive control antibody. […] The experiment for each cytokine was repeated three times.
(§2) Plates were incubated overnight at 4° C. After washing the plates three times (3×) with 300 μL PBST using a plate washer (model ELx405; BioTek), plates were blocked by incubating for 1 hour at room temperature with 300 μL of blocking buffer (PBST+0.5% BSA) in each well. […] Plates were then washed 5 times with PBST using the plate washer.

human TNFSF14 (LIGHT) = human TNFSF14 (LIGHT) (human, UniProt O43557 74-240, limits assumed); test: plate ELISA, cytokine coated
Description: as §1, §2

human TNF-α = molecular target: T1, human TNF-α (human, UniProt P01375 77-233); test: plate ELISA, cytokine coated
T1 construct: also called TNF alpha
Description: as §1, §2

human Lymphotoxin α2-β1 = molecular target: T2, human Lymphotoxin α2-β1 (human, UniProt P01374 35-205; Q06643 49-244, limits assumed); test: plate ELISA, cytokine coated
T2 construct: Copies read from the name α2-β1; also called Lymβ 1
T2 sequence (looked up) 1: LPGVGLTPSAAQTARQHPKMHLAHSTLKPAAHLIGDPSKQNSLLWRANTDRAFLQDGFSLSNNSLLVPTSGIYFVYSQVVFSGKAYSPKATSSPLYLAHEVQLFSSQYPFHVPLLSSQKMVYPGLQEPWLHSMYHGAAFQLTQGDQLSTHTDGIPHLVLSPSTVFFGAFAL
T2 sequence (looked up) 2: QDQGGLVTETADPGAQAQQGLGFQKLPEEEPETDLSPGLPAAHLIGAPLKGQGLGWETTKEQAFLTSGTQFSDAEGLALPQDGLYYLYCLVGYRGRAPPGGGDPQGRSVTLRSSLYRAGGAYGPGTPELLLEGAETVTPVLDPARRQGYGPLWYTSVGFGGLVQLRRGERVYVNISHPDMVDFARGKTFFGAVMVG
Description: as §1, §2

human Lymphotoxin α1-β2 = molecular target: T3, human Lymphotoxin α1-β2 (human, UniProt P01374 35-205; Q06643 49-244, limits assumed); test: plate ELISA, cytokine coated
T3 construct: Copies read from the name α1-β2; also called Lymβ 2
T3 sequence (looked up) 1: T2 sequence (looked up) 1
T3 sequence (looked up) 2: T2 sequence (looked up) 2
Description: as §1, §2

[1] = molecular target: T4, recombinant soluble cynomolgus monkey TL1A (cynomolgus monkey, UniProt O95150 72-251 (human entry)); test: SPR, IgG captured on anti-hIgG, TL1A injected;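 note: biacore surface plasmon resonance on a dextran sensor chip, double-referenced sensorgrams fitted to a one-to-one binding model, KD taken as dissociation over association rate constant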
T4 construct: also called cyno rsTL1A; cyno TL1A
T4 chain: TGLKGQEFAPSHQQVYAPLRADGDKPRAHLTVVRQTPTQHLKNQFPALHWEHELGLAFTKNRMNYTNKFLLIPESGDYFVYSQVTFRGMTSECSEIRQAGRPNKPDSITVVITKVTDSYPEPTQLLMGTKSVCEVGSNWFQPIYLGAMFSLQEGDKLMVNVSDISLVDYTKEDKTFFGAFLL
Excerpt: (§3) The antibodies were captured via directly immobilized anti-human IgG (GE Healthcare) onto a carboxymethylated dextran sensor chip surface (CM5) using a Biacore T100 or T200 instrument. Anti-human IgG was immobilized through amine coupling to densities of approximately 4,000-13,000 response units (RU). […] At the end of each cycle, the entire anti-hIgG surface was regenerated by a 30-second pulse of 3M MgCl₂ followed by two consecutive 15-second pulses of PBS-NET. […] All injections were performed at 25° C. at a collection rate of 10 Hz. All sensorgrams were double referenced by using both a control surface and buffer injections. Rate constants were determined by fitting the data to a 1:1 model in Biacore T100, T200 evaluation software v1.0, or BIAevaluation software v4.1.1 and the equation KD=Kd/kₐ.
(§4) At the highest cytokine concentrations, the dissociation phase was sometimes extended to 60 minutes to achieve at least a 5% decrease in binding signal.

[2] = molecular target: T5, recombinant soluble rat TL1A (rat, UniProt Q8K3Y7 76-252); test: SPR, IgG captured on anti-hIgG, TL1A injected
T5 construct: also called rat rsTL1A
T5 sequence: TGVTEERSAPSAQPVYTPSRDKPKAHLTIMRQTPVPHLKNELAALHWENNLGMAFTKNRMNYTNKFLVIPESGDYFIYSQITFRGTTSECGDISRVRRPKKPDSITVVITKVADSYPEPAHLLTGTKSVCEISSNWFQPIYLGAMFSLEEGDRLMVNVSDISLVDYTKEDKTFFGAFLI
Excerpt: as §3, §4

[3] = molecular target: T6, recombinant soluble human TL1A (human, UniProt O95150 71-251); test: plate ELISA, TL1A coated, antibody titrated; plate of TNF α
T6 construct: Homotrimer, expressed in HEK293 and purified over HitrapNTA; no tag is described; Used biotinylated in the HTRF assay and in flow cytometry; also called rsTL1A; hTL1A
T6 sequence: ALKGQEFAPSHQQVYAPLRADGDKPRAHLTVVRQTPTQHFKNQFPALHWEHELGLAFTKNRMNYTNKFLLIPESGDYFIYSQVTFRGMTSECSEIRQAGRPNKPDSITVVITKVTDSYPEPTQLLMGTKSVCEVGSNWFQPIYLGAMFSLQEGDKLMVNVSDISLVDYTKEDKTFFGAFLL
Description: as §1, §2

[4] = molecular target: T6, recombinant soluble human TL1A; test: plate ELISA, TL1A coated, antibody titrated; plate of Lymβ 2
Description: as §1, §2

[5] = molecular target: T6, recombinant soluble human TL1A; test: plate ELISA, TL1A coated, antibody titrated; plate of TNFSF10
Description: as §1, §2

[6] = molecular target: T6, recombinant soluble human TL1A; test: plate ELISA, TL1A coated, antibody titrated; plate of TNFSF14
Description: as §1, §2

[7] = molecular target: T6, recombinant soluble human TL1A; test: plate ELISA, TL1A coated, antibody titrated; plate of TNFSF6; plate of TNFSF6
Description: as §1, §2

[8] = molecular target: T7, human TNFSF6 (FAS Ligand) (human, UniProt P48023 134-281, limits assumed); test: plate ELISA, TNFSF6 coated at 1 µg/mL, detection with anti-human IgG HRP
T7 sequence (looked up): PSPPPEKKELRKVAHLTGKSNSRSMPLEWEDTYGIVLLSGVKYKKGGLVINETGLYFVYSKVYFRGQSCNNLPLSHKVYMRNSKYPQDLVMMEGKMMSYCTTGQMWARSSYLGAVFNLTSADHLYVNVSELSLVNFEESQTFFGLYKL
Description: as §1, §2

[9] = molecular target: T8, endogenous TL1A of stimulated cynomolgus monkey peripheral blood (cynomolgus monkey, UniProt G7PRK8 72-251); test: MSD ligand-binding assay of 1D1 1.31-free sTL1A in plasma of stimulated cynomolgus blood; mean of n=6 monkeys
T8 construct: also called sTL1A (cynomolgus)
T8 sequence: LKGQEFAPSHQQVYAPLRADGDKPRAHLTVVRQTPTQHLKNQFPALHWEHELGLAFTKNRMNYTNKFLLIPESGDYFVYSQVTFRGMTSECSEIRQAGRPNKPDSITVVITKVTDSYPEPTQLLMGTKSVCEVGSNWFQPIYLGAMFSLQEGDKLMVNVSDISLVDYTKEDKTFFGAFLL
Description: (§5) Cynomolgus monkey peripheral blood treated with 1 ng/ml recombinant human IL-12 and 10 ng/ml recombinant human IL-18 was stimulated by immune complex coated plates for 24 hours at 37° C. […] Plasma was prepared from these samples and IFNγ was measured in the plasma samples by a quantitative immune-ligand binding assay using a Mesoscale (MSD) kit. […] Cynomolgus monkey peripheral blood treated with 1 ng/ml recombinant human IL-12 and 10 ng/ml recombinant human IL-18 was stimulated by immune complex coated plates for 24 hours at 37° C.
(§6) For IC and IL-12 and IL-18 stimulation, cynomolgus monkey blood was collected in sodium heparin coated tubes and used within one hour after the blood draw. Human IL-12 (1 ng/mL final concentration) and human IL-18 (10 ng/ml final concentration) were mixed in with blood prior to addition of 95 μL of the blood/IL-12/IL-18 mixture to each well of the IC coated plates.

[10] = molecular target: T8, endogenous TL1A of stimulated …; test: MSD ligand-binding assay of 1D1 1.31-free sTL1A in plasma of stimulated cynomolgus blood; lower end over the monkeys; lower end of range over 6 monkeys
Description: as §5, §6

[11] = molecular target: T8, endogenous TL1A of stimulated …; test: MSD ligand-binding assay of 1D1 1.31-free soluble TL1A in plasma of cynomolgus whole blood stimulated 24 h with immune complex + IL-12/IL-18 (representative experiment)
Description: Controls included stimulation without antibody as well as no, or single stimulation controls (only IC or only IL-12/IL-18) in triplicate. After 24 hours of culture at 37° C., 200 μL of 5% bovine serum albumin in PBS were added and mixed well with the 100 μL of blood cultures to dilute plasma (dilution factor: 3). […] IFNγ was measured using the MSD human IFNγ kit (Catalog No. K151AEB-1) following the manufacturer's instructions. […] The following day, plates were washed three times with 150 μL per well of 0.1% Tween 20 in PBS, followed with 150 μL per well of blocking solution (5% bovine serum albumin in PBS), then the plates were incubated at room temperature for 1 hour with orbital shaking (1500 rpm). […] Plates were incubated at room temperature for 2 hours with orbital shaking (1500 rpm) followed by the same plate wash protocol mentioned above. TL1A standard curves were generated using recombinant cynomolgus monkey soluble TL1A. Plates were read following the manufacturer's procedure, standard curve and plasma concentration of the cytokine were calculated using the MSD software per manufacturer's instructions.

Sequence of human TNFSF10 (TRAIL) (P50591 114-281 limits assumed): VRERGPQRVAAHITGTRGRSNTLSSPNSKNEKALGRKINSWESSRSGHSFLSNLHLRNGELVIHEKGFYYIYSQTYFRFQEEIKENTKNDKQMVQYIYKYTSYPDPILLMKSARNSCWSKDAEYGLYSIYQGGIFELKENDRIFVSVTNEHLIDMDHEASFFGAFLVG
T1 sequence (P01375 77-233 limits assumed): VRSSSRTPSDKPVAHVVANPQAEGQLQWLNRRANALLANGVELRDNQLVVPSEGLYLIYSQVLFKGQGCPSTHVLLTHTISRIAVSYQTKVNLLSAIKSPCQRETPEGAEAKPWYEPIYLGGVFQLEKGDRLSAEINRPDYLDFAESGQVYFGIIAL
Sequence of human TNFSF14 (LIGHT) (O43557 74-240 limits assumed): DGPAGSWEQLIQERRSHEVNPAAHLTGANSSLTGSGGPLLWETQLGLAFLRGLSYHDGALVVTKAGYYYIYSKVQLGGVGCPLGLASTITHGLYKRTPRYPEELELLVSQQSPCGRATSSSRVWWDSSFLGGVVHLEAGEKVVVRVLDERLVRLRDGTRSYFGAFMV

B1: 1D1 1.31 (antibody, human IgG1, kappa, V domains shown)
VH: QVQLVQSGAEVKKPGASVKVSCKASGYDFTYYGISWVRQAPGQGLEWMGWISTYNGNTHYARMLQGRVTMTTDTSTRTAYMELRSLRSDDTAVYYCARENYYGSGAYRGGMDVWGQGTTVTVSS
VL: EIVLTQSPATLSLSPGERATLSCRASQSVSSYLAWYQQKPGQAPRLLIYDASNRATGIPARFSGSGSGTDFTLTISSLEPEDFAVYYCQQRSNWPWTFGQGTKVEIKR
notes: Full length human IgG1 with effector function-null mutations in the Fc, produced in CHO cells; Used biotinylated for staining of monocytes
binding result (human TNFSF10 (TRAIL)): no binding (tested: 25 µg/mL highest antibody concentration) | binding result (human TNFSF14 (LIGHT)): no binding (tested: 25 µg/mL highest antibody concentration) | binding result (human TNF-α): no binding (tested: 25 µg/mL highest antibody concentration) | binding result (human Lymphotoxin α2-β1): no binding (tested: 25 µg/mL highest antibody concentration) | binding result (human Lymphotoxin α1-β2): no binding (tested: 25 µg/mL highest antibody concentration) | Kd [1]: 0.081 nM | koff [1]: 3.6e-05 s⁻¹ | kon [1]: 450000 M⁻¹ s⁻¹ | t1/2 [1]: 5.34 h | Kd [2]: 4.86 nM | koff [2]: 0.0026 s⁻¹ | kon [2]: 540000 M⁻¹ s⁻¹ | t1/2 [2]: 263 s | EC50 [3]: 0.0082 ng/mL | EC50 [4]: 0.0058 ng/mL | EC50 [5]: 0.008 ng/mL | EC50 [6]: 0.0084 ng/mL | EC50 [7]: 0.0085 ng/mL | binding result [8]: no binding (tested: 25 µg/ml) | IC50 [9]: 0.022 nM | IC50 [10]: 0.114 pM | IC50 [11]: 0.169 pM
